{"source": "paper PMC4923194", "about": "“The Crystal Structure of the C-Terminal Domain of the Salmonella enterica PduO Protein: An Old Fold with a New Heme-Binding Mode” (Frontiers in Microbiology, 2016)", "key": {"[1]": {"target": "T1, PduO C-terminal domain (PduOC) (Salmonella enterica, UniProt A0A0F6B395)", "T1 construct": "C-terminal domain PduOC, 147 residues, His-tag-free; octamer with 4 hemes", "test": "crystal structure ([…] Å) and ITC; UV/Vis titration", "assay_type": "binding"}, "[2]": {"target": "PduOC-His18Ala (H18A) mutant (Salmonella enterica subsp. enterica serovar Typhimurium)", "test": "SEC-MALS; Superdex 200 increase 10/300 GL in 100 mM Tris-HCl pH 8, 150 mM NaCl, with multi-angle static light scattering and refractive index detectors; wild type as PduOC:heme, H18A without heme"}, "[3]": {"target": "the molecule itself", "test": "SEC-MALS; Superdex 200 increase 10/300 GL in 100 mM Tris-HCl pH 8, 150 mM NaCl, with multi-angle static light scattering and refractive index detectors; wild type as PduOC:heme, H18A without heme"}, "[4]": {"target": "the molecule itself", "test": "SEC; gel filtration of the PduOC apoprotein (heme extracted); data not shown"}}, "data": [{"molecule": "C=CC1=C(C)C2=Cc3c(C=C)c(C)c4[n]3[Fe][n]3c(c(C)c(CCC(=O)O)c3=CC3=NC(=C4)C(C)=C3CCC(=O)O)=CC1=N2", "note": "[heme B]", "values": [{"measurement": "Kd", "setting": "[1]", "value": 160, "unit": "nM"}]}, {"molecule": "PduOC-His18Ala (H18A) mutant (domain or fragment)", "values": [{"measurement": "stoichiometry N", "setting": "[2]", "value": 2}]}, {"molecule": "C-terminal domain of the Salmonella enterica PduO protein (PduOC) (domain or fragment, PduO, ATP:Cob(I)alamin adenosyltransferase of S. enterica subsp. enterica serovar Typhimurium; C-terminal domain (PduOC); the His-tag-free monomer has 147 residues; the N-terminal domain (PduON) has 197 residues; excess heme B added to the lysate for crystallography; Residues left by the pETM11 vector after TEV cleavage are probably counted in the 147 residues (surmise); also called PduOC:heme; …) KETTPVALSFHDLHQLTRAAVERAQQLQVPVVVSIVDAHGTETVTWRMPDALLVSSELAPKKAWTAVAMKTATHELSDVVQPGAALYGLESHLQGKVVTFGGGYALWRDGILIGGLGISGGSVEQDMDIAQTAIAAINVGTHQ", "values": [{"measurement": "stoichiometry N", "setting": "[3]", "value": 8}, {"measurement": "stoichiometry N", "setting": "[4]", "value": 2}]}]}
